From patent US20190169310A1 (Amgen, published 2019)

T1: human 1-27 CD3ε-EpCAM (human)
T1 construct: also called 1-27 CD3-EpCAM comprising the human 27 mer
T1 chain: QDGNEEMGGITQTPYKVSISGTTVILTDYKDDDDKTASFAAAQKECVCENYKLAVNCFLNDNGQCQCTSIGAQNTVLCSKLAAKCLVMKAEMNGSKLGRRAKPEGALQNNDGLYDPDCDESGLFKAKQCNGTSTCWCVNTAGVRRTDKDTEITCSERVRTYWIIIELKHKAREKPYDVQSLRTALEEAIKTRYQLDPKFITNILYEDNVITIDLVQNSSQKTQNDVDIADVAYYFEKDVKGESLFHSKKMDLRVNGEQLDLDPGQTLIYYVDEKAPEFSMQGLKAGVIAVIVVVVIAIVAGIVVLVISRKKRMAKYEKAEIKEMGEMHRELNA

T2: swine 1-27 CD3ε-EpCAM (Sus scrofa)
T2 construct: negative control; also called 1-27 CD3-EpCAM comprising the swine 27 mer
T2 chain: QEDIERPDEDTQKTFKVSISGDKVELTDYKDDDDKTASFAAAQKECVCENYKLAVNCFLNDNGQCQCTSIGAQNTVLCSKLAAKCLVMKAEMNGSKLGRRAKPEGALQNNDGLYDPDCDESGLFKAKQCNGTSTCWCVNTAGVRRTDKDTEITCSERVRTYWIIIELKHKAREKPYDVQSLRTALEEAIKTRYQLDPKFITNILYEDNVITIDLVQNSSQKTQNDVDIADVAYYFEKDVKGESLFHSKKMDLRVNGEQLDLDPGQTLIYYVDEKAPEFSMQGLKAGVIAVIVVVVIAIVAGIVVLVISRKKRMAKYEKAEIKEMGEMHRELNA

T3: squirrel monkey 1-27 CD3ε-EpCAM (Saimiri sciureus)
T3 construct: also called 1-27 CD3-EpCAM comprising the squirrel monkey 27 mer
T3 chain: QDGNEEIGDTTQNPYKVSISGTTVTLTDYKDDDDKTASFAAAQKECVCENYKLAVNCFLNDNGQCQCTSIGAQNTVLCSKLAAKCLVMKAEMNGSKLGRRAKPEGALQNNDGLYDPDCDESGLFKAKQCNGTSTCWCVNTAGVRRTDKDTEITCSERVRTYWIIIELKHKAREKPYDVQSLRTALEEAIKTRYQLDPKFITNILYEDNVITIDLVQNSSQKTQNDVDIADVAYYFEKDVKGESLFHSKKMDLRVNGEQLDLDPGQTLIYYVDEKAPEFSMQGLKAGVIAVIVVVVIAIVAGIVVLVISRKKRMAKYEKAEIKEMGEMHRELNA

T4: tamarin 1-27 CD3ε-EpCAM (Saguinus oedipus)
T4 construct: also called 1-27 CD3-EpCAM comprising the tamarin 27 mer
T4 chain: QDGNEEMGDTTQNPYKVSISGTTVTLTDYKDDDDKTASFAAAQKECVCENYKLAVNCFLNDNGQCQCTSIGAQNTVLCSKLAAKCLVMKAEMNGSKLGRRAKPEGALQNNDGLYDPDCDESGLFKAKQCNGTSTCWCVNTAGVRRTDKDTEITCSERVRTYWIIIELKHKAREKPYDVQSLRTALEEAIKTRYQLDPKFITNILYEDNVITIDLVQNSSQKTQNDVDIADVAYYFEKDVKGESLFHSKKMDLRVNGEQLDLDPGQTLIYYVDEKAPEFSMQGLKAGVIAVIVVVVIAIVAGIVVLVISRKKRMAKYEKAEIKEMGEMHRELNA

T5: marmoset 1-27 CD3ε-EpCAM (Callithrix jacchus)
T5 construct: also called 1-27 CD3-EpCAM comprising the marmoset 27 mer
T5 chain: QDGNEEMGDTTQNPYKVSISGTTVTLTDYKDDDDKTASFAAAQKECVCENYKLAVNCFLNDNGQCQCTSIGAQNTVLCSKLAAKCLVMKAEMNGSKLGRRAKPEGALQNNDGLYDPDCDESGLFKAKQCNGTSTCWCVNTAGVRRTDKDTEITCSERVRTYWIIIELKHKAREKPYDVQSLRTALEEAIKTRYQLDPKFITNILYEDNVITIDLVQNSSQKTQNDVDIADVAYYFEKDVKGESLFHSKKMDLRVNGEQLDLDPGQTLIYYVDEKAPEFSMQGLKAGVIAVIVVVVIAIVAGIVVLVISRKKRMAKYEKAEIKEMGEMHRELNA

B1: scFv MP 9076-A9 (scFv)
scFv: QVQLVESGGGLVKPGGSLRLSCAASGFTFSDYYMYWVRQAPGKGLEWVAIISDGGYYTYYSDIIKGRFTISRDNAKNNLYLQMNSLRAEDTAVYYCARGFPLLRHGAMDYWGQGTLVTVSSGGGGSGGGGSGGGGSDIQMTQSPSSLSASVGDRVTITCKASQNVDTNVAWYQQKPGQAPKSLIYSASYRYSDVPSRFSGSASGTDFTLTISSVQSEDFATYYCQQYDSYPYTFGGGTKLEIK
notes: crude periplasmic extract from E. coli, His-tagged (His detection); also called PM76A9-HL
B2: scFv MP 9076-B10 (scFv)
scFv: QVQLVESGGGLVKPGESLRLSCAASGFTFSDYYMYWVRQAPGKGLEWVAIISDGGYYTYYSDIIKGRFTISRDNAKNSLYLQMNSLKAEDTAVYYCARGFPLLRHGAMDYWGQGTLVTVSSGGGGSGGGGSGGGGSDIQMTQSPSSLSASVGDRVTITCKASQNVDTNVAWYQQKPGQAPKSLIYSASYRYSDVPSRFSGSASGTDFTLTISSVQSEDFATYYCQQYDSYPYTFGGGTKLEIK
notes: crude periplasmic extract from E. coli, His-tagged; 610 read as B10; also called MP 9076-610; MP9076-610 (so in the source)
B3: scFv F1-A10 (scFv)
scFv: EVQLLESGGGLVQPGGSLRLSCAASGFTFSDFFMAWVRQAPGRGLEWVSTIVSDGGSTYYRDSVKGRFTISRDNSKNTLYLQMNSLRAEDTAVYYCARRGNSGYYVMDAWGQGTTVTVSSGGGGSGGGGSGGGGSDIQMTQSPSTLSASVGDRVTITCRASSSVTYMHWYQQKPGKAPKLLIYDTSKVASGVPSRFSGSGSGTEFTLTISSLQPDDFATYYCQQWSRNSPYTFGQGTKLEIK
notes: crude periplasmic extract from E. coli, His-tagged; also called PM F1-A10 HL
B4: A2J HLP (scFv)
scFv: EVQLLESGGGLVQPGGSLKLSCAASGFTFNVYAMNWVRQAPGKGLEWVARIRSKYNNYATYYADSVKKRFTISRDDSKNTAYLQMNNLKTEDTAVYYCVRHGNFGNSYLSWWAYWGQGTLVTVSSGGGGSGGGGSGGGGSELVVTQEPSLTVSPGGTVTLTCRSSTGAVTSGYYPNWVQQKPGQAPRGLIGATDMRPSGTPARFSGSLLGGKAALTLSGVQPEDEAEYYCALWYSNRWVFGGGTKLTVL
notes: crude periplasmic preparation; also called VH-VL-P of A2J
B5: E2M HLP (scFv)
scFv: EVQLLESGGGLVQPGGSLKLSCAASGFTFNGYAMNWVRQAPGKGLEWVARIRSKYNNYATYYADSVKERFTISRDDSKNTAYLQMNNLKTEDTAVYYCVRHRNFGNSYLSWFAYWGQGTLVTVSSGGGGSGGGGSGGGGSELVVTQEPSLTVSPGGTVTLTCRSSTGAVTSGYYPNWVQQKPGQAPRGLIGATDMRPSGTPARFSGSLLGGKAALTLSGVQPEDEAEYYCALWYSNRWVFGGGTKLTVL
notes: crude periplasmic preparation; also called VH-VL-P of E2M

Legend:
human PSMA = target: T6, human PSMA (human, UniProt Q04609 1-750); experiment: Pepscan ELISA, 15-mer peptides of the extracellular domain of human PSMA
T6 construct: whole, on cells; also called prostate-specific membrane antigen
T6 sequence (Q04609 whole entry, the tested form may be a part): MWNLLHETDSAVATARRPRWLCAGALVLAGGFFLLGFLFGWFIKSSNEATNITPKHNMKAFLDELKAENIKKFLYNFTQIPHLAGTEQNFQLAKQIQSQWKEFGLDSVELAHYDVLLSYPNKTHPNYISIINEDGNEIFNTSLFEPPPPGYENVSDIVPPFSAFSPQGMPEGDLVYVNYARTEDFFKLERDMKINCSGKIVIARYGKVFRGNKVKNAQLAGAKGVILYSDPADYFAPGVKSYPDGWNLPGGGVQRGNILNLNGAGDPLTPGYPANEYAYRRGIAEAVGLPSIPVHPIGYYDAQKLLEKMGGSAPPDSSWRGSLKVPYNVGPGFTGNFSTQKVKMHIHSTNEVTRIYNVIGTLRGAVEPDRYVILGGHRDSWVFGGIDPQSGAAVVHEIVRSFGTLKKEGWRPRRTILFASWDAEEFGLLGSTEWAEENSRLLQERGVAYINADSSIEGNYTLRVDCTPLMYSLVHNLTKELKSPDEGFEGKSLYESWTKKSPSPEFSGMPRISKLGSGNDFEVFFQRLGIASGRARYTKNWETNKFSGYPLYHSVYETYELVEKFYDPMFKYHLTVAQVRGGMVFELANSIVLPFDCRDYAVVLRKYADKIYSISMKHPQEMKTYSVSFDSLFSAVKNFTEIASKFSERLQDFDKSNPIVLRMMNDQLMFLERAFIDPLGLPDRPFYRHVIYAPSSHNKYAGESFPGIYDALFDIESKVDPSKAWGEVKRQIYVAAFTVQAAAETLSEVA
Description: These three PSMA BiTE antibodies were subjected to an alternative epitope mapping approach based on peptide scanning (Pepscan). Pepscan uses overlapping peptides of a given protein and analyses antibody binding to immobilized peptides by enzyme-linked immunosorbent assays (ELISAs). The epitope mapping experiments with PSMA BiTE antibodies were performed at the company Pepscan (Lelystad, The Netherlands).
These peptides were coated to ELISA wells in a 384-well plate format. […] To this end 7 ml of crude periplasmic extracts were shipped on dry ice to Pepscan (The Netherlands). Using scFv counterparts in this assay minimized the risk to pick up signals from the second non-PSMA binding specificity of the BiTE antibodies, which may lead to misinterpretation of the PSMA binding epitopes of the target binders. The scFvs were incubated with the peptides and specific binding detected using an anti-His antibody. Binding signals were measured in a 384-well ELISA reader.

1-27 CD3-Fc = target: T7, 1-27 CD3-Fc (human); experiment: ELISA, periplasmic scFv on captured 1-27 CD3-Fc
T7 construct: assigned to this molecule; also called 1-27 CD3ε-Fc; 27 aa huCD3E

human 1-27 CD3ε-EpCAM = target: T1, human 1-27 CD3ε-EpCAM; experiment: FACS, 293-HEK transfectants
swine 1-27 CD3ε-EpCAM = target: T2, swine 1-27 CD3ε-EpCAM; experiment: FACS, 293-HEK transfectants
[1] = target: T3, squirrel monkey 1-27 CD3ε-EpCAM; experiment: FACS, 293-HEK transfectants
tamarin 1-27 CD3ε-EpCAM = target: T4, tamarin 1-27 CD3ε-EpCAM; experiment: FACS, 293-HEK transfectants
marmoset 1-27 CD3ε-EpCAM = target: T5, marmoset 1-27 CD3ε-EpCAM; experiment: FACS, 293-HEK transfectants

Binder | binding result (human PSMA) | binding result (1-27 CD3-Fc) | further results
B1 | binds | – | –
B2 | binds | – | –
B3 | binds | – | –
B4 | – | binds | –
B5 | – | binds | binding result (human 1-27 CD3ε-EpCAM): binds; binding result (swine 1-27 CD3ε-EpCAM): no binding; binding result [1]: binds; binding result (tamarin 1-27 CD3ε-EpCAM): binds; binding result (marmoset 1-27 CD3ε-EpCAM): binds
